Patent publication US20190150137A1
pKd: −log10 of the molar value.

Legend:
[1] = molecular target: ClfAD327C/K541C (ClfA(229-545)D327C/K541C, disulfide-stabilized closed conformation) (Staphylococcus aureus strain Newman) (UniProt Q2G015); test: ITC, peptide titrated into ClfAD327C/K541C; panel assigned by the legend paragraph 25 (bovine Fg γ peptide has the lower affinity)
[2] = molecular target: GST-Fg γ^1-17 (GST fusion protein containing the native human Fg γ 395-411 sequence) (human); test: ELISA-type assay, ligand coated, apparent Kd
[3] = molecular target: GST-Fg g^1-17D16A (GST fusion of the Fg γ 395-411 sequence with D16A) (human); test: solid-phase binding assay, wells coated with GST-γ1-17 D16A, anti-His detection, A405

Substance | pKd [1] | pKd [2] | EC50 (read off the curve) [3] [nM]
bovine Fg γ peptide (peptide representing the bovine Fg γ chain sequence) (from UniProt P12799 420-436) | 4.68 | – | –
ClfAD327C/K541C (ClfA(229-545)D327C/K541C, disulfide-stabilized closed conformation) (from UniProt Q2G015 229-545) | – | 7.70 | –
ClfA229-545 (recombinant His-tagged N2N3 segment of Staphylococcus aureus clumping factor A) (from UniProt Q2G015 229-545) | – | 6.65 | 200
